Measured values: paper PMC4499152
Where two headings read alike, the source gives them in different places.

What was measured:
RPA complex [1] = biological target: T1, RPA complex (UniProt P27694;P15927;P35244 1-616;1-270;1-121); test: pull-down
RPA complex [2] = biological target: T1, RPA complex; test: pull-down; remark: listed apart in the source

T1 sequence (P27694 whole entry, chain 1 of 3): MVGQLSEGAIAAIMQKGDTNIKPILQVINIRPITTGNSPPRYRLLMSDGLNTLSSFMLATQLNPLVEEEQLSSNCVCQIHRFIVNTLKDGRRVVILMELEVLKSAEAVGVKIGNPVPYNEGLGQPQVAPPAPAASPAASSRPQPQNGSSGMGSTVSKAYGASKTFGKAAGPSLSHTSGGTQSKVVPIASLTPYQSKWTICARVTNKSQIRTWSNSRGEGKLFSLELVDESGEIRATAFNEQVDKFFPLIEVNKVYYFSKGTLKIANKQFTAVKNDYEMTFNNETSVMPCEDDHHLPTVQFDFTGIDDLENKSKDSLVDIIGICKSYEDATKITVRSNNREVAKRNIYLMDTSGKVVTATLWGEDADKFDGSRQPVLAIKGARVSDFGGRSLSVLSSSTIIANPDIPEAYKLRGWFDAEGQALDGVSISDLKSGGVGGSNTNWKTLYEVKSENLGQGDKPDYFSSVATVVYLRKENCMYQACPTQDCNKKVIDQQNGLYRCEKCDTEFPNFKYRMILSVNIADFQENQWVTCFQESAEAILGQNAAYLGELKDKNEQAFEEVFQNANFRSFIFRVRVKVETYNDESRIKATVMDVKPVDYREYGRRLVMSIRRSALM
T1 sequence (P15927 whole entry, chain 2 of 3): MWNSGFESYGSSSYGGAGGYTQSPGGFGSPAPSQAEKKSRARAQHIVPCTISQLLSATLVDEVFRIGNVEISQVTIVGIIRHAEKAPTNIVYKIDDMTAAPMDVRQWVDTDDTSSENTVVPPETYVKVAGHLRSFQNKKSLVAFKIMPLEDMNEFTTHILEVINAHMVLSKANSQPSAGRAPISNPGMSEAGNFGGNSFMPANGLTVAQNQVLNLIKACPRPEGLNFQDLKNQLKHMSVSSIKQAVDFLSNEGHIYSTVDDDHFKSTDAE
T1 sequence (P35244 whole entry, chain 3 of 3): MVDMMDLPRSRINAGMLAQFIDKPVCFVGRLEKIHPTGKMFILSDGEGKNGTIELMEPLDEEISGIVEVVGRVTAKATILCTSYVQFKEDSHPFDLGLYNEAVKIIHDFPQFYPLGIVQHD

| Binder | binding result (RPA complex [1]) | binding result (RPA complex [2]) |
| --- | --- | --- |
| TTTGCGTTTGCGTTTGCGTTTGCGTTTGCGTTTGCGTTTGCGTTTGCG (ssDNA) [ssMUT] | binds |  |
| TTAGGGTTAGGGTTAGGGTTAGGGTTAGGGTTAGGGTTAGGGTTAGGG (ssDNA) [ssTEL] |  | binds |
